Results from publication PMC7952371.

Target: T1, mixed lineage pseudokinase ligand (human (endogenous in post-mortem brain grey matter)), Q8NB16
T1 chain: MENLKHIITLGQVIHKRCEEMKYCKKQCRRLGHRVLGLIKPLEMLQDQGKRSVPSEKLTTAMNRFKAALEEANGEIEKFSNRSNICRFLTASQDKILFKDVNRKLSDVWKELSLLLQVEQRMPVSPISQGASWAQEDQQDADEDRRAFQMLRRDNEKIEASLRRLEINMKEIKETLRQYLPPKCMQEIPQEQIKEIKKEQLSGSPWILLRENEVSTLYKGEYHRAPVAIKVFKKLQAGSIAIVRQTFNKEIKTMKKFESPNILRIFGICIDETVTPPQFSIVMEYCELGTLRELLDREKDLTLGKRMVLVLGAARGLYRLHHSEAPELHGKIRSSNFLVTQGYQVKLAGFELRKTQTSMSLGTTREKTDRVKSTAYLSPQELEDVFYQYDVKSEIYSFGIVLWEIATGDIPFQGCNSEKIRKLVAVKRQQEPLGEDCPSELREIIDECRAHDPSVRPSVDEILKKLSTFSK
Assay: non-reducing gel electrophoresis and Western blot; MS grey matter extracted in native conditions (TBS, 0.1% Triton X-100); 3-8% Tris-acetate gels in non-reducing conditions; blot for MLKL
Conditions: remark: other sources report otherwise

stoichiometry N: 4
B1: mixed lineage pseudokinase ligand, Q8NB16 1-471 (natural protein)
chain: MENLKHIITLGQVIHKRCEEMKYCKKQCRRLGHRVLGLIKPLEMLQDQGKRSVPSEKLTTAMNRFKAALEEANGEIEKFSNRSNICRFLTASQDKILFKDVNRKLSDVWKELSLLLQVEQRMPVSPISQGASWAQEDQQDADEDRRAFQMLRRDNEKIEASLRRLEINMKEIKETLRQYLPPKCMQEIPQEQIKEIKKEQLSGSPWILLRENEVSTLYKGEYHRAPVAIKVFKKLQAGSIAIVRQTFNKEIKTMKKFESPNILRIFGICIDETVTPPQFSIVMEYCELGTLRELLDREKDLTLGKRMVLVLGAARGLYRLHHSEAPELHGKIRSSNFLVTQGYQVKLAGFELRKTQTSMSLGTTREKTDRVKSTAYLSPQELEDVFYQYDVKSEIYSFGIVLWEIATGDIPFQGCNSEKIRKLVAVKRQQEPLGEDCPSELREIIDECRAHDPSVRPSVDEILKKLSTFSK
